Laboratory results: US20240034757A1 (OXFORD UNIVERSITY INNOVATION, published 2024)
Like-named read-outs stand apart in the source and are kept apart here.

B1: P1243_AMBAM (other)
chain: RNHTEDNSTEYYDYEEARCACPARHLNNTNGTVLKLLGCHYFCNGTLCTAPDGYPCYNLTAQQVRTLTTYPNTSCAVGVCMKGTCVKNGTMEQCFKTP
B2: CCL8_HUMAN (ligand, UniProt P80075 24-99, looked up)
chain: QPDSVSIPITCCFNVINRKIPIQRLESYTRITNIQCPKEAVIFKTKRGKEVCADPKERWVRDSMKHLDQIFQNLKP

Legend:
CCL5_HUMAN [1] = target: T1, CCL5_HUMAN (human, UniProt P13501 24-91); test: cell-based or functional assay
T1 sequence: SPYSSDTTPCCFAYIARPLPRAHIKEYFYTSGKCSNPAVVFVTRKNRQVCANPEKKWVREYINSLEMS

CCL21_HUMAN [2] = target: T2, CCL21_HUMAN (human, UniProt O00585 24-134); test: BLI
T2 sequence: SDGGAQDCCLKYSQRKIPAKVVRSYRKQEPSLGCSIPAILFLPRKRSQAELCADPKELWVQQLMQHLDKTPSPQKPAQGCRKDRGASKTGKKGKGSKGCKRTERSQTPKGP

CCL23_HUMAN [3] = target: T3, CCL23_HUMAN (human, UniProt P55773 22-120); test: BLI
T3 sequence: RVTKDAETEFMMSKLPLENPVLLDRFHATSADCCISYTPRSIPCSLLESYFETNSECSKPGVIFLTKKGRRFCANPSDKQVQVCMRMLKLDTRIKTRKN

CCL21_HUMAN [4] = target: T2, CCL21_HUMAN; test: BLI; remark: listed apart in the source
CCL23_HUMAN [5] = target: T3, CCL23_HUMAN; test: BLI; remark: listed apart in the source
P1181_AMBMA = target: T4, P1181_AMBMA (Amblyomma maculatum, UniProt G3MIX6 26-115); test: BLI
T4 sequence: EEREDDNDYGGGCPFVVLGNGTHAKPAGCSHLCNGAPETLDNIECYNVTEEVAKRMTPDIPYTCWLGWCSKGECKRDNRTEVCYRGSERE

P467_RHIPU = target: T5, P467_RHIPU (Rhipicephalus pulchellus, UniProt L7M8Z8 22-127); test: BLI
T5 sequence: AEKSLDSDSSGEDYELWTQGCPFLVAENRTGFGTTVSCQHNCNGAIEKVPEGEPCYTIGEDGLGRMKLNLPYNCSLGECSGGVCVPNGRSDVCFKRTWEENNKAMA

P1180_AMBTR = target: T6, P1180_AMBTR (Amblyomma triste, UniProt A0A023G6B6 26-116); test: BLI
T6 sequence: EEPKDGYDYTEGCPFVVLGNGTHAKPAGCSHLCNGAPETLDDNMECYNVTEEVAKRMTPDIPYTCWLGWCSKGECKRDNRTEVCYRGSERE

P1182_AMBMA = target: T7, P1182_AMBMA (Amblyomma maculatum, UniProt G3MJ83 27-115); test: BLI
T7 sequence: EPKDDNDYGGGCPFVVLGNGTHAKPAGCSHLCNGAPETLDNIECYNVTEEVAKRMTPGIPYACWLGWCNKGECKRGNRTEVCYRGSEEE

P983_AMBCA = target: T8, P983_AMBCA (Amblyomma cajennense, UniProt A0A023FFB5 22-119); test: BLI
T8 sequence: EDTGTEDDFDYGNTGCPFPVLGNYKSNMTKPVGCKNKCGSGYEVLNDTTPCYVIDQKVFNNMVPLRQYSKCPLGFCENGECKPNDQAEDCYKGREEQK

P1243_AMBAM = target: B1; test: BLI
P991_AMBCA = target: T9, P991_AMBCA (Amblyomma cajennense, UniProt A0A023FFD0 29-136); test: BLI
T9 sequence: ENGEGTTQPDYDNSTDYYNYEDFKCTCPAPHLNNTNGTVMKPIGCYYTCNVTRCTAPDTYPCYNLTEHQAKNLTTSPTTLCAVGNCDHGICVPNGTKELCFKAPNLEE

P546_AMBCA = target: T10, P546_AMBCA (Amblyomma cajennense, UniProt A0A023FBW7 22-118); test: BLI
T10 sequence: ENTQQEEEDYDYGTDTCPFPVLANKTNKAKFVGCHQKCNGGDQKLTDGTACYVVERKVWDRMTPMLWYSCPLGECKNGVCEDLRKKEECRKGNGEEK

P672_RHIPU = target: T11, P672_RHIPU (Rhipicephalus pulchellus, UniProt L7MC74 22-125); test: BLI
T11 sequence: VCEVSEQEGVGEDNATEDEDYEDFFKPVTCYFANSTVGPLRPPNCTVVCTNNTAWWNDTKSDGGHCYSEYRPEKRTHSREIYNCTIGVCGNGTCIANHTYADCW

P1183_AMBTR = target: T12, P1183_AMBTR (Amblyomma triste, UniProt A0A023G9N9 26-115); test: BLI
T12 sequence: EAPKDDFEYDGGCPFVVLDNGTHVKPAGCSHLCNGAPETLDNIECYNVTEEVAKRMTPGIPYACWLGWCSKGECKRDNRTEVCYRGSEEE

P985_AMBPA = target: T13, P985_AMBPA (Amblyomma parvum, UniProt A0A023FT45 25-132); test: BLI
T13 sequence: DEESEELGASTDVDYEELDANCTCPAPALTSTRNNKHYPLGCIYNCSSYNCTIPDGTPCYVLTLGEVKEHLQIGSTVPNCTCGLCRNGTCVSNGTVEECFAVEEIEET

P974_AMBCA = target: T14, P974_AMBCA (Amblyomma cajennense, UniProt A0A023FDY8 22-118); test: BLI
T14 sequence: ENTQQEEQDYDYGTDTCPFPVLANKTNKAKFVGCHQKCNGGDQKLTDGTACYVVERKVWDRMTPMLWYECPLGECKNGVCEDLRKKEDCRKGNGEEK

EVA1_RHISA = target: T15, EVA1_RHISA (Rhipicephalus sanguineus, UniProt P0C8E7 21-114); test: BLI
T15 construct: also called Evasin-1
T15 sequence: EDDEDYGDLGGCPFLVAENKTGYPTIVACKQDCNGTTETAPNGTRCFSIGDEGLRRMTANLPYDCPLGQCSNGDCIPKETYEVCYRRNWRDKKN

CCL3_HUMAN = target: T16, CCL3_HUMAN (human, UniProt P10147 24-92); test: yeast surface display FACS
T16 sequence: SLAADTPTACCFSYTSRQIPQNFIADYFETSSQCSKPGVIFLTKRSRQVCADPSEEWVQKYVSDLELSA

CXCL12_HUMAN = CXCL12_HUMAN (human, UniProt P48061 22-89); test: yeast surface display FACS
CCL5_HUMAN [6] = target: T1, CCL5_HUMAN; test: yeast surface display FACS
CCL20_HUMAN = CCL20_HUMAN (human, UniProt P78556 27-96); test: yeast surface display FACS
CCL8_HUMAN = target: B2; test: yeast surface display FACS
CCL11_HUMAN = CCL11_HUMAN (human, UniProt P51671 24-97); test: yeast surface display FACS
CCL17_HUMAN = target: T17, CCL17_HUMAN (human, UniProt Q92583 24-94); test: yeast surface display FACS
T17 sequence: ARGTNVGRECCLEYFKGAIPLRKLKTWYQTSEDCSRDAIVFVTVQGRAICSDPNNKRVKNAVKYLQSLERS

P1095_IXORI = target: T18, P1095_IXORI (Ixodes ricinus, UniProt A0A0K8RCE3 24-112); test: BLI
T18 sequence: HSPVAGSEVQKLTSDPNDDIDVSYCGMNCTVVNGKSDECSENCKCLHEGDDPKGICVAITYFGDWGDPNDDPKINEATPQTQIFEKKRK

P1174_IXORI = target: T19, P1174_IXORI (Ixodes ricinus, UniProt V5I3C5 28-104); test: BLI
T19 sequence: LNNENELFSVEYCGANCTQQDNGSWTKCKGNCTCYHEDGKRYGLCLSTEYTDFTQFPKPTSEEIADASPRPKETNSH

P1156_IXORI = target: T20, P1156_IXORI (Ixodes ricinus, UniProt V5HBW0 29-108); test: BLI
T20 sequence: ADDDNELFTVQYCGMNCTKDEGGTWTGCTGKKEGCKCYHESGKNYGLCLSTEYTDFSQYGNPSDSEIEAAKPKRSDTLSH

P1134_IXORI = target: T21, P1134_IXORI (Ixodes ricinus, UniProt A0A0K8RAI0 32-135); test: BLI
T21 sequence: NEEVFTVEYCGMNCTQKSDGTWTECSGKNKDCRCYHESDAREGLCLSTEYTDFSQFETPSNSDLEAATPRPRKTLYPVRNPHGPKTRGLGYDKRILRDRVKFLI

P1096_IXORI = target: T22, P1096_IXORI (Ixodes ricinus, UniProt A0A0K8RKE4 24-114); test: BLI
T22 sequence: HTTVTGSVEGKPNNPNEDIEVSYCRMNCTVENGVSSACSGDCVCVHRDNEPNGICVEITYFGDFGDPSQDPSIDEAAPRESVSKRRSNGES

P1166_IXORI = target: T23, P1166_IXORI (Ixodes ricinus, UniProt A0A0K8RE99 25-110); test: BLI
T23 sequence: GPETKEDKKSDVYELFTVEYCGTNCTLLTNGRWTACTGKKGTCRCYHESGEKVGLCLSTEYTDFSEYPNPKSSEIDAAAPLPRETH

P1127_IXORI = target: T24, P1127_IXORI (Ixodes ricinus, UniProt A0A0K8RJ67 29-108); test: BLI
T24 sequence: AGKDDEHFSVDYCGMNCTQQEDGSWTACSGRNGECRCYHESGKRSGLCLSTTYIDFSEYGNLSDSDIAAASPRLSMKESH

P1229_IXORI = target: T25, P1229_IXORI (Ixodes ricinus, UniProt A0A0K8R4R9 32-108); test: BLI
T25 sequence: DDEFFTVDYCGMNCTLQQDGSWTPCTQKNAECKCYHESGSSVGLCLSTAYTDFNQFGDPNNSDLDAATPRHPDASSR

P1170_IXORI = target: T26, P1170_IXORI (Ixodes ricinus, UniProt A0A0K8RD51 29-102); test: BLI
T26 sequence: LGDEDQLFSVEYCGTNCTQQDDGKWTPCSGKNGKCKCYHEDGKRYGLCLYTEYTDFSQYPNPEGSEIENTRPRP

P1168_IXORI = target: T27, P1168_IXORI (Ixodes ricinus, UniProt A0A0K8RCU3 25-106); test: BLI
T27 sequence: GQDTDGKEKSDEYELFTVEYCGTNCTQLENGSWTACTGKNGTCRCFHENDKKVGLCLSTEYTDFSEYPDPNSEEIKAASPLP

P1132_IXORI = target: T28, P1132_IXORI (Ixodes ricinus, UniProt V5GZ08 29-106); test: BLI
T28 sequence: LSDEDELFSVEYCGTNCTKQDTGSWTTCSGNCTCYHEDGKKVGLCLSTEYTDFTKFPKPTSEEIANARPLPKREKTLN

Sequence of CCL20_HUMAN (P78556 27-96 limits assumed): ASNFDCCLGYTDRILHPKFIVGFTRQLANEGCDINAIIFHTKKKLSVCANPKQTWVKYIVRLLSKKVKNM
Sequence of CCL11_HUMAN (P51671 24-97 limits assumed): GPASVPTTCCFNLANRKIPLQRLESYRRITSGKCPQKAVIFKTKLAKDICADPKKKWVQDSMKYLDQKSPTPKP
Sequence of CXCL12_HUMAN (P48061 22-89 limits assumed): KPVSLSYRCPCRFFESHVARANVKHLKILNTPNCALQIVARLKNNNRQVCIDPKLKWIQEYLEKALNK

For B1, the “IC50, THP1 cell migration” value (CCL5_HUMAN [1]) was 7.87 nM, the Kd (CCL21_HUMAN [2]) was 6.54 nM and the Kd (CCL23_HUMAN [3]) was 6.62 nM. It also gave a Kd (CCL21_HUMAN [4]) of 6.54 nM and a Kd (CCL23_HUMAN [5]) of 6.62 nM.

With B2 the Kd (P1181_AMBMA) was 14 nM, the Kd (P467_RHIPU) was 2.85 nM and the Kd (P1180_AMBTR) was 3.6 nM. For the same binder, the Kd (P1182_AMBMA) was 29 nM, the Kd (P983_AMBCA) was 7 nM and the Kd (P1243_AMBAM) was 21.9 nM. The Kd (P991_AMBCA) was 8.79 nM, the Kd (P546_AMBCA) was 1.3 nM and the Kd (P672_RHIPU) was 3.7 nM. It also gave a Kd (P1183_AMBTR) of 1100 nM, a Kd (P985_AMBPA) of 6.5 nM and a Kd (P974_AMBCA) of 2.58 nM. B2: no binding (tested: 600 nM) (EVA1_RHISA).

B3: P1030_AMBPA (other)
chain: GPPSIPGNESIPGCGDAGTTTAPEDNPKHYGTLTDKKGCTLPIIGTWMTAVDHQHLQGTRGERRGPTGKVNLPASCRKNCHGRQEILRDGIPCRKVVGNPKGSKKHLKSGCLRGKCLAGQCVNDGRRISCYVPRNITDTEPTPGLLAE
B3: binds (CCL3_HUMAN); binds (CXCL12_HUMAN); binds (CCL5_HUMAN [6]). B3: binds (CCL20_HUMAN); binds (CCL8_HUMAN); binds (CCL11_HUMAN). B3: binds (CCL17_HUMAN).

B4: CXCL11_HUMAN (ligand)
chain: FPMFKRGRCLCIGPGVKAVKVADIEKASIMYPSNNCDKIEVIITLKENKGQRCLNPKSKQARLIIKKVERKNF
B4: no binding (tested: 300 nM) (P1095_IXORI); no binding (tested: 300 nM) (P1174_IXORI); no binding (tested: 300 nM) (P1156_IXORI). B4: no binding (tested: 300 nM) (P1134_IXORI); no binding (tested: 300 nM) (P1096_IXORI); no binding (tested: 300 nM) (P1166_IXORI). B4: no binding (tested: 300 nM) (P1127_IXORI); no binding (tested: 300 nM) (P1229_IXORI); no binding (tested: 300 nM) (P1170_IXORI). B4: no binding (tested: 300 nM) (P1168_IXORI); no binding (tested: 300 nM) (P1132_IXORI).
